Assay results taken from US9975933B2, “Tumor tissue-penetrating peptide specific to neuropilin and fusion protein having same peptide fused therein” (AJOU UNIVERSITY INDUSTRY-ACADEMIC COOPERATION FOUNDATION, priority 2013, dated 2018).

B1: Sema3A: Secreted class 3 semaphorin 3A (26-760), neuropilin ligand, control group (protein)
chain: KNNVPRLKLSYKEMLESNNVITFNGLANSSSYHTFLLDEERSRLYVGAKDHIFSFDLVNIKDFQKIVWPVSYTRRDECKWAGKDILKECANFIKVLKAYNQTHLYACGTGAFHPICTYIEIGHHPEDNIFKLENSHFENGRGKSPYDPKLLTASLLIDGELYSGTAADFMGRDFAIFRTLGHHHPIRTEQHDSRWLNDPKFISAHLISESDNPEDDKVYFFFRENAIDGEHSGKATHARIGQICKNDFGGHRSLVNKWTTFLKARLICSVPGPNGIDTHFDELQDVFLMNFKDPKNPVVYGVFTTSSNIFKGSAVCMYSMSDVRRVFLGPYAHRDGPNYQWVPYQGRVPYPRPGTCPSKTFGGFDSTKDLPDDVITFARSHPAMYNPVFPMNNRPIVIKTDVNYQFTQIVVDRVDAEDGQYDVMFIGTDVGTVLKVVSIPKETWYDLEEVLLEEMTVFREPTAISAMELSTKQQQLYIGSTAGVAQLPLHRCDIYGKACAECCLARDPYCAWDGSACSRYFPTAKRRTRRQDIRNGDPLTHCSDLHHDNHHGHSPEERIIYGVENSSTFLECSPKSQRALVYWQFQRRNEERKEEIRVDDHIIRTDQGLLLRSLQQKDSGNYLCHAVEHGFIQTLLKVTLEVIDTEHLEELLHKDDDGDGSKTKEMSNSMTPSQKVWYRDFMQLINHPNLNTMDEFCEQVWKRDRKQRRQRPGHTPGNSNKWKHLQENKKGRNRR

Legend:
[1] = test system: HUVEC; experiment: Transwell assay of vascular endothelial cell permeability; format: cell-based, human; conditions: 30 minutes
Description: Based on the above experimental results, as experiments for confirming the improvement of vascular endothelial cell permeability, single peptides and Fc-TPP were treated to conduct Transwell assay.
Specifically, HUVECs were seeded into Transwell plate (Corning) at a density of 5×10^4 per well in a upper chamber using Endothelial Growth Medium, PromoCell (EGM) medium, followed by incubation at 37° C. for 3 days under 5% CO2 condition. […] Thereafter, Dextran-FITC (Sigma) 50 μg was put into the upper chamber and the medium of the lower chamber was sampled to measure its fluorescence after 30 minutes, using the principle that a fluorescent substance is observed in the lower chamber when the permeability in HUVECs was improved.

[2] = test system: VE-cadherin in HUVEC; experiment: Western blot of VE-cadherin in HUVEC; format: cell-based, human; conditions: single peptides and Fc-TPP 1 μM, 10 minutes
Text: During this process, a decrease in vascular endothelial (VE)-cadherin, phosphorylation, etc. of endothelial cells occur. That is, VE-cadherin or epithelial (E)-cadherin involves in adhesion between endothelial cells, while forming the base of adherent junction between endothelial cells and epithelial cells. The change in molecules relieve the density of adherent junction, which results in increasing permeability of blood vessels and improving intracellular permeability.
As an experimental method for indirectly confirming improvement of vascular permeability based thereon, a change in VE-cadherin was confirmed through a Western blot. Specifically, HUVECs were seeded into 6-well plates at a density of 3×10^5 per well, followed by incubation for 24 hours. Thereafter, single peptides and Fc-TPP were treated with 1 μM for 10 minutes to perform a Western blot. Gel subjected to SDS-PAGE was transported into PVDF membrane, a primary antibody (SantaCruz) and an HRP-conjugated secondary antibody (SantaCruz) which recognize VE-cadherin and (3-actin, respectively were used for detection. ImageQuant LAS4000 mini (GE Healthcare) was used for analysis.

[3] = test system: A431 tumor; experiment: IHC of Fc-TPP infiltration in A431 tumor tissue; format: in vivo, Balb/c nude mice; conditions: A431 xenograft, 5 mg/kg intravenously, 3 hours
Description: 3 hours after injection, tumors were extracted from mice to conduct immunohistochemistry experiment. The extracted tumors were cut into 20 μm thick using a frozen section method, and stained with a primary antibody, CD31 antibody (BD Pharmingen), and a TRITC (red fluorescence)-conjugated secondary antibody. Further, in order to observe Fc-TPP distributed in the tissues, FITC (green fluorescence)-conjugated antibodies recognizing Fc were used.

[4] = test system: b1b2 domains of neuropilin-1 and -2; experiment: ELISA binding to b1b2 domains of neuropilin-1 and -2; conditions: 100 nM (peptides 100 nM, 1 μM)
Description: The binding capacity of purified Fc-TPP to b1b2 domains of neuropilin-1 and -2 (neuropilin (NRP)1/2-b1b1 domain) was confirmed in Enzyme Linked Immunosorbent Assay (ELISA).
The target molecules, b1b2 domains (273-586) of neuropilin-1 and b1b2 domains (275-595) of neuropilin-2, and the control group VEGFR2 (46-753) were bound in an amount of 1 μg each in 96-well EIA/RIA plates (COSTAR Corning In., USA) at room temperature for 1 hour, and then washed three times for 10 minutes with 0.1% PBST (0.1% Tween20, pH 7.4, 137 mM NaCl, 10 mM Phosphate, 2.7 mM KCl, SIGMA-ALDRICH co., USA). After binding for 1 hour with 5% skim milk (pH 7.4, 137 mM NaCl, 10 mM Phosphate, 2.7 mM KCl, SIGMA-ALDRICH co., USA), it was washed three times for 10 minutes with 0.1% PBST (0.1% Tween20, pH 7.4, 137 mM NaCl, 10 mM Phosphate, 2.7 mM KCl, SIGMA-ALDRICH co., USA). […] After binding to alkaline phosphatase (AP)-conjugated anti-biotin mAb (Sigma, USA) and reacting with pnitrophenyl […] (pNPP, SIGMA-ALDRICH co., USA), absorbance at 405 nm was quantified. From the ELISA result obtained from 30 minute-reaction of AP-pNPP, the binding capacity of expressed and purified Fc-TPP to b1b2 domains of neuropilin-1 and -2 was confirmed.

[5] = target: T1, NRP1-b1b2 (b1b2 domain of neuropilin-1) (Homo sapiens, UniProt O14786); experiment: SPR (Biacore2000) binding to b1b2 domain of neuropilin-1; conditions: NRP1-b1b2, SPR; for Kd: read-out: Binding affinity KD
T1 construct: b1b2 domains (273-586) of neuropilin-1
T1 sequence (O14786 273-586): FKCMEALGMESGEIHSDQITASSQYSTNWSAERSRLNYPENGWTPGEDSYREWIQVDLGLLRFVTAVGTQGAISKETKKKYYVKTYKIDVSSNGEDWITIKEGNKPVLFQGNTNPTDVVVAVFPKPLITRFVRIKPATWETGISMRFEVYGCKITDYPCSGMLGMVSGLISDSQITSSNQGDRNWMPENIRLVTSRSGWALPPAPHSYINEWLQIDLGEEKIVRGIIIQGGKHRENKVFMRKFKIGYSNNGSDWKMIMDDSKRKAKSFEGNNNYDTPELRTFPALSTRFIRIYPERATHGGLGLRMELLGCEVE
Description: (§1) Specifically, each b1b2 domain of neuropilin-1 and -2 was diluted with 10 mM Na-acetate buffer (pH 4.0), and fixed onto CMS sensor chips (GE healthcare, USA) in about 1000 response units (RU). […] After bond and dissociation analysis, the regeneration of CMS chip was performed by streaming a buffer (20 Mm NaOH, 1 M NaCl, pH 10.0) at a stream velocity 30 μl/min for 1 minute.

[6] = target: T2, NRP2-b1b2 (b1b2 domain of neuropilin-2) (Homo sapiens, UniProt O60462); experiment: SPR (Biacore2000) binding to b1b2 domain of neuropilin-2; conditions: for Kd: read-out: Binding affinity KD
T2 construct: b1b2 domains (275-595) of neuropilin-2
T2 sequence (O60462 275-595): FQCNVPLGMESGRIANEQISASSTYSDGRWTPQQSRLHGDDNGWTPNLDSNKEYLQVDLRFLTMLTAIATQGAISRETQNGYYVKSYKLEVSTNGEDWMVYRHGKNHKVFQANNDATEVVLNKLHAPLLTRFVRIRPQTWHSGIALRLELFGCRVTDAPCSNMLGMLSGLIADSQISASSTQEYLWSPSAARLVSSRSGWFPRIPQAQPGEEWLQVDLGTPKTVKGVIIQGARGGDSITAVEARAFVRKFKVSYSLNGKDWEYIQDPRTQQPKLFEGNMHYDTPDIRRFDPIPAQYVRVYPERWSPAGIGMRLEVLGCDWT
Description: as §1

[7] = target: b1b2 domains (275-595) of neuropilin-2 (Homo sapiens (Human)) (UniProt O60462); experiment: SPR, b1b2 domain on chip
[8] = target: b1b2 domains (273-586) of neuropilin-1 (Homo sapiens (Human)) (UniProt O14786); experiment: SPR, b1b2 domain on chip
[9] = test system: FaDu tumor; experiment: In vivo Evans Blue assay of vascular permeability; parameters: species or system Balb/c nude mice; conditions: FaDu xenograft, 400 ng, 40 minutes
Description: Additionally, in order to confirm the improvement of vascular permeability in vivo, Evans Blue assay was conducted. […] 40 minutes after injection, the mice were perfused through the heart with PBS containing 1% BSA, and tumor tissues were extracted (FIG. 11d). Then, the extracted tissues were put into 1 ml of […] (Sigma) and reacted at 37° C. overnight under mild shaking condition. Thereafter, the supernatant was obtained from centrifugation to measure the absorbance (600 nm), and the amount that Evans Blue penetrated was quantified.

[10] = single peptides and Fc-TPP 1 μM

Molecule	permeability of HUVEC (Transwell, Dextran-FITC) [1, 10]	change in VE-cadherin (Western blot) [2]	Association rate ka [5]	Dissociation rate kd [5]	Kd [5]	Association rate ka [6]	Dissociation rate kd [6]	Kd [6]	further results
A22: Sema3A-derived 22 amino acid TPP, residues 739-760, SEQ ID NO: 1, HTPGNSNKWKHLQENKKGRNRR (A22) [Clone A22]	improvement of vascular permeability was not induced	no change in VE-cadherin							infiltration into tumor tissue (IHC) [3]: did not infiltrate into the tissues
A22p: A22 with Asn758Pro, SEQ ID NO: 2, HTPGNSNKWKHLQENKKGRPRR (A22p) [Clone A22p]	improvement of vascular permeability was not induced	no change in VE-cadherin							binding to b1b2 domains of NRP-1 and -2 (ELISA, absorbance 405 nm) [4]: stronger bond; infiltration into tumor tissue (IHC) [3]: did not infiltrate into the tissues
Fc-4A22: Human IgG1 Fc with TPP 4A22 (SEQ ID NO: 5) fused to its C-terminus (GAGAHTPGNSNKWKHLQENKKGRNRR)	improvement of vascular permeability was not induced	VE-cadherin was not decreased	1.02 ± 0.14 × 10^3 M^−1s^−1	1.93 ± 0.05 × 10^−2 s^−1	18000 nM	6.09 ± 0.63 × 10^3 M^−1s^−1	1.23 ± 0.16 × 10^−1 s^−1	20200 nM	
VEGF165A (from UniProt P15692-4) (ligand)									Kd [7]: 32 nM; koff [7]: 0.00373 s⁻¹; kon [7]: 117000 M⁻¹ s⁻¹; Kd [8]: 3.51 nM; koff [8]: 0.00342 s⁻¹; kon [8]: 975000 M⁻¹ s⁻¹
Fc-15F22: Human IgG1 Fc with (GGGGS)3-F22 (SEQ ID NO: 9) fused to its C-terminus (GGGGSGGGGSGGGGSREAPGAPRSPEPQDQKKPRNRR)	permeability of HUVEC was not improved		1.35 ± 0.24 × 10^3 M^−1s^−1	5.34 ± 0.24 × 10^−2 s^−1	39700 nM	1.05 ± 0.03 × 10^3 M^−1s^−1	1.30 ± 0.21 × 10^−2 s^−1	12400 nM	
F22: Sema3F-derived 22 amino acid TPP, residues 758-779, SEQ ID NO: 3, REAPGAPRSPEPQDQKKPRNRR (F22) [Clone F22]	permeability of HUVEC was not improved								
Fc-4F22: Human IgG1 Fc with TPP 4F22 (SEQ ID NO: 8) fused to its C-terminus (GAGAREAPGAPRSPEPQDQKKPRNRR)	permeability of HUVEC was not improved		2.18 ± 0.12 × 10^2 M^−1s^−1	2.25 ± 0.18 × 10^−3 s^−1	10300 nM	1.21 ± 0.15 × 10^2 M^−1s^−1	1.57 ± 0.40 × 10^−3 s^−1	13000 nM	
Sema3A (26-760) (from UniProt Q14563) (ligand)									Kd [7]: 231 nM; koff [7]: 0.00161 s⁻¹; kon [7]: 6960 M⁻¹ s⁻¹; Kd [8]: 27.9 nM; koff [8]: 0.000808 s⁻¹; kon [8]: 28900 M⁻¹ s⁻¹
F22p: F22 with Asn777Pro, SEQ ID NO: 4, REAPGAPRSPEPQDQKKPRPRR (F22p) [Clone F22p]	permeability of HUVEC was not improved								binding to b1b2 domains of NRP-1 and -2 (ELISA, absorbance 405 nm) [4]: stronger bond
Sema3F (19-779) (from UniProt Q13275) (ligand)									Kd [7]: 345 nM; koff [7]: 0.0015 s⁻¹; kon [7]: 4340 M⁻¹ s⁻¹; Kd [8]: 245 nM; koff [8]: 0.000973 s⁻¹; kon [8]: 3980 M⁻¹ s⁻¹
B1		a decrease in VE-cadherin was observed	2.89 ± 0.07 × 10^4 M^−1s^−1	8.08 ± 0.06 × 10^−4 s^−1	27.9 nM	6.96 ± 0.03 × 10^3 M^−1s^−1	1.61 ± 0.28 × 10^−3 s^−1	231 nM	permeability of HUVEC (Transwell, Dextran-FITC) ([1]; control ligands about 1.3 nM): permeability of HUVEC was improved; vascular permeability (Evans Blue) [9]: increased vascular permeability
